# Patent US20250043319A1, “BIOSYNTHESIS OF CYCLOLAVANDULYL DERIVATIVES OF AROMATIC COMPOUNDS” (Invizyne Technologies, Inc., priority 2022, published 2025)
# Key:
# Type in all cases: biochemical
# [1] = cell-free cyclolavandulylation activity screening of prenyltransferases, substrate resveratrol; details: cell-free reaction with CLDS and DMAPP (CLPP donor), 28° C., 48 hours, QTOF LC/MS, with vs without prenyltransferase
# Source text: (§1) Genes encoding the following prenyltransferases were codon-optimized, synthesized, and cloned into the pET28a vector for protein expression and isolation/purification as described in Example 1. • NphB (Accession: 1ZB6_A) (SEQ ID NO: 8) • AbPT (Accession: KPI30840.1) (SEQ ID NO: 9) • SkPT (Accession: Q2L6E3.1) (SEQ ID NO: 10) • SvPT (Accession: WP_078899560.1) (SEQ ID NO: 11) • Sr1310PT (Accession: WP_057602682.1) (SEQ ID NO: 12) • NapT8 (Accession: ABS50461.1) (SEQ ID NO: 13) • NapT9 (Accession: ABS50490.1) (SEQ ID NO: 14) • Mcl23PT (Accession: AGH68908.1) (SEQ ID NO: 15) • CnqP3PT (Accession: WP_047018069.1) (SEQ ID NO: 16) • AtaWTPT (Accession: AMB20850.1) (SEQ ID NO: 17) • MzPT1 (Accession: WP_135330628.1) (SEQ ID NO: 18) • MzPT2 (Accession: WP_135330626.1) (SEQ ID NO: 19) B. Cell-Free Biosynthesis Reaction with CLPP and Various Aromatic Substrates
# (§2) The cyclolavandulyl diphosphate synthase, CLDS was prepared as described in Example 1 and used in the synthesis of CLPP.
# (§3) Stocks of the various aromatic compounds used as substrates for cyclolavandulylation activity screening were obtained from the following commercial sources: • Resveratrol (Fisher Scientific) 200 mM stock in DMSO • Luteolin (Fisher Scientific) 200 mM stock in DMSO • Naringenin (Fisher Scientific) 200 mM stock in DMSO • Tryptamine (Fisher Scientific) 200 mM stock in DMSO • Tryptophan (Fisher Scientific) 40 mM stock in water • Olivetolic acid (Toronto Research Chemicals) 200 mM stock in DMSO • Divarinic acid (Toronto Research Chemicals) 200 mM stock in DMSO • Phorolic acid (prepared in house) 200 mM stock in DMSO • Olivetol (Fisher Scientific) 200 mM stock in DMSO • Screening for cell-free biosynthesis was carried out as follows. 10 mM DMAPP, 5 mM MgCl2, 100 mM Tris-HCl (pH=8), and 4 mg/mL CLDS (SEQ ID NO: 4) were combined in a 6.80 mL reaction, which was incubated at 28° C. for 48 hours. This mixture was aliquoted into a 96-well plate (80 μL per well). The various prenyltransferases (18 μL, ˜1 g/L final concentration) listed above were screened across various substrates (2 μL of stock solution, variable concentration shown above), which were added to the wells and incubated at 28° C. for an additional 48 hours.
# (§4) Analysis of the reaction mixture was carried out as follows: 50 μL of the reaction mixture were added to 1 mL MeOH. The resulting solution was vortexed, centrifuged at 17,200 g for 5 minutes, and transferred to an HPLC vial for analysis. HRMS-QTOF analyses of the cell free reactions was performed on an Agilent Technologies 6545 Accurate Mass QTOF LC/MS with a reverse-phase column (Agilent Infinity Lab Poroshell 120 ECC18, 2.7 μm, 3.0×50 mm) using positive ESI with 1% MeCN—H2O (0.1% FA) for 2 min followed by a linear gradient of 1-99% MeCN—H2O (0.1% FA) for 14 min with a flow rate of 0.4 mL/min.
# (§5) Mass spectrometric (MS) analysis of chromatograms was carried out using MassHunter Qualitative Analysis 10.0. Targeted metabolomics using the exact m/z of the calculated proton adduct [H^+] in the presence and absence of prenyltransferase indicated the presence of cyclolavandulylated product.
# [2] = cell-free cyclolavandulylation activity screening of prenyltransferases, substrate luteolin; details: cell-free reaction with CLDS and DMAPP (CLPP donor), 28° C., 48 hours, QTOF LC/MS, with vs without prenyltransferase
# Source text: as §1, §2, §3, §4, §5
# [3] = cell-free cyclolavandulylation activity screening of prenyltransferases, substrate naringenin; details: cell-free reaction with CLDS and DMAPP (CLPP donor), 28° C., 48 hours, QTOF LC/MS, with vs without prenyltransferase
# Source text: as §1, §2, §3, §4, §5
# [4] = cell-free cyclolavandulylation activity screening of prenyltransferases, substrate tryptamine; details: cell-free reaction with CLDS and DMAPP (CLPP donor), 28° C., 48 hours, QTOF LC/MS, with vs without prenyltransferase
# Source text: as §1, §2, §3, §4, §5
# [5] = cell-free cyclolavandulylation activity screening of prenyltransferases, substrate tryptophan; details: cell-free reaction with CLDS and DMAPP (CLPP donor), 28° C., 48 hours, QTOF LC/MS, with vs without prenyltransferase
# Source text: as §1, §2, §3, §4, §5
# [6] = cell-free cyclolavandulylation activity screening of prenyltransferases, substrate olivetolic acid; details: cell-free reaction with CLDS and DMAPP (CLPP donor), 28° C., 48 hours, QTOF LC/MS, with vs without prenyltransferase
# Source text: as §1, §2, §3, §4, §5
# [7] = cell-free cyclolavandulylation activity screening of prenyltransferases, summary over all tested substrates; details: any of the tested substrates; cell-free biosynthesis reaction with CLDS from Streptomyces sp. CL190 and DMAPP
# Source text: as §1, §2, §3, §4, §5
# [8] = cell-free cyclolavandulylation activity screening of prenyltransferases, substrate divarinic acid; details: cell-free reaction with CLDS and DMAPP (CLPP donor), 28° C., 48 hours, QTOF LC/MS, with vs without prenyltransferase
# Source text: as §1
# (§6) The cyclolavandulyl diphosphate synthase, CLDS was prepared as described in Example 1 and used in the synthesis of CLPP. […]
# as §5
# [9] = cell-free cyclolavandulylation activity screening of prenyltransferases, substrate phorolic acid; details: cell-free reaction with CLDS and DMAPP (CLPP donor), 28° C., 48 hours, QTOF LC/MS, with vs without prenyltransferase
# Source text: as §1, §6, §5
# [10] = cell-free cyclolavandulylation activity screening of prenyltransferases, substrate olivetol; details: cell-free reaction with CLDS and DMAPP (CLPP donor), 28° C., 48 hours, QTOF LC/MS, with vs without prenyltransferase
# Source text: as §1, §6, §5
Molecule,"presence of cyclolavandulylated product, Aromatic Compound (Substrate) Resveratrol [1]","presence of cyclolavandulylated product, Aromatic Compound (Substrate) Luteolin [2]","presence of cyclolavandulylated product, Aromatic Compound (Substrate) Naringenin [3]","presence of cyclolavandulylated product, Aromatic Compound (Substrate) Tryptamine [4]","presence of cyclolavandulylated product, Aromatic Compound (Substrate) Tryptophan [5]","presence of cyclolavandulylated product, Aromatic Compound (Substrate) Olivetolic Acid [6]",cyclolavandulylation activity with tested aromatic compounds (summary of Table 7) [7],"presence of cyclolavandulylated product, Aromatic Compound (Substrate) Divarinic Acid [8]","presence of cyclolavandulylated product, Aromatic Compound (Substrate) Phorolic Acid [9]","presence of cyclolavandulylated product, Aromatic Compound (Substrate) Olivetol [10]"
"NphB: naturally occurring prenyltransferase from Streptomyces sp. CL190, Accession: 1ZB6_A, SEQ ID NO: 8 (protein, listed as Streptomyces sp.) MSEAADVERVYAAMEEAAGLLGVACARDKIYPLLSTFQDTLVEGGSVVVFSMASGRHSTELDFSISVPTSHGDPYATVVEKGLFPATGHPVDDLLADTQKHLPVSMFAIDGEVTGGFKKTYAFFPTDNMPGVAELSAIPSMPPAVAENAELFARYGLDKVQMTSMDYKKRQVNLYFSELSAQTLEAESVLALVRELGLHVPNELGLKFCKRSFSVYPTLNWETGKIDRLCFAVISNDPTLVPSSDEGDIEKFHNYATKAPYAYVGEKRTLVYGLTLSPKEEYYKLGAYYHITDVQRGLLKAFDSLED",No,No,Yes,No,Yes,No,produced a cyclolavandulylated aromatic compound,,,
"MzPT1: prenyltransferase, Accession: WP_135330628.1, SEQ ID NO: 18 (protein, listed as Streptomyces sp.) MSRTAEVERVYSAIEEAAGLLSAVCSRDNVWPVLDAFGDELAEAMIVFGGQAGDRHAGELDYSFTVPSSIGNPYPHALSRGLVTETDHPVGSVLSDIQGRWPIKEHFVDAGVVGGFKKLYAHFPDNMQKVSDIADIPSMPRAVAENAALFARYGLDQVAMIGVDYRHKTVSVYFHFGPDGRPEPSTIRALLSDLGMPEPDEPTLEFAHKSLRVNITLGWETGDVIRVAFAPPPVRGLDPSALPGQLTPRMEEFARVSPRAYAGGRVNMYAVKWMRGEEFHEVCTYYQLTPWYEKILTDAPKEQQG",No,No,No,No,No,Yes,produced a cyclolavandulylated aromatic compound,,,
"NapT9: prenyltransferase, Accession: ABS50490.1, SEQ ID NO: 14 (protein, listed as Streptomyces sp.) MSGATGAEKLYSAIEESARMVDAPFSRDKVWPTLSAFEGGFSDAGGVILSLQAGTHVPEMEYSAQVSPGISDPYARALASGILTETDHPVSTVLAEIVSLAPTSEHYIDCGIVGGFKKIYANFPHDQQTVAALAGLPSMPRAVGGNAEFFARHGLDRVALIGVDYVNKTINLYFQVSAATAGNLDQKTVSAMLHETGMSEPSDAMVAYACQAYRIYTTLSWDAQEILRIAFAPKPRRGIDPADLPARLEPRIEKFLRATPHKYPGALINATAAKWSPEREVLDLAAHYQVSAVQMKAIEAEEGQAS",No,Yes,No,No,No,No,produced a cyclolavandulylated aromatic compound,,,
"AtaWTPT: prenyltransferase, Accession: AMB20850.1, SEQ ID NO: 17 (protein, listed as Aspergillus terreus) MLPPSDSKDPRPWQILSQALGFPNYDQELWWQNTAETLNRVLEQCDYSVHLQYKYLAFYHKYILPSLGPFRRPGVEPEYISGLSHGGHPLEISVKIDKSKTICRLGLQAIGPLAGTARDPLNSFGDRELLKNLATLLPHVDLRLFDHFNAQVGLDRAQCAVATTKLIKESHNIVCTSLDLKDGEVIPKVYFSTIPKGLVTETPLFDLTFAAIEQMEVYHKDAPLRTALSSLKDFLRPRVPTDASITPPLTGLIGVDCIDPMLSRLKVYLATFRMDLSLIRDYWTLGGLLTDAGTMKGLEMVETLAKTLKLGDEACETLDAERLPFGINYAMKPGTAELAPPQIYFPLLGINDGFIADALVEFFQYMGWEDQANRYKDELKAKFPNVDISQTKNVHRWLGVAYSETKGPSMNIYYDVVAGNVARV",Yes,No,Yes,No,Yes,No,produced a cyclolavandulylated aromatic compound,,,
"AbPT: prenyltransferase, Accession: KPI30840.1, SEQ ID NO: 9 (protein, listed as Actinomyces sp.) MSGKANIQRVYSAVEEAADLLDIACSREQMWPTLTAFEDVLTDGAIVFNMVTSGGRIGDLSFDFTLPPSAGDPYELALAHGLVDETDHPVRALFSDIQARFPLQAYGVDHGITSGFHKTYAFFPLGDLQSVAELADIPSMPSGLSEHVTSFAAYGLDDKVSAIAIDYARRTWNVYFNGLSAPHVQRTAVLSMLSEFGLPEPSAQLLEFIETSSALYPTFGWDSSKIERISFSTRTTDPVALPARIEPKLEKFARSAPHVYEGERVLVYAGALSPSEEYYKLATYYQMTAAAHDRVRSAN",No,No,No,No,Yes,No,produced a cyclolavandulylated aromatic compound,,,
"NphBM31s: engineered soluble variant of prenyltransferase NphB from Streptomyces sp. CL190, SEQ ID NO: 6 (protein, Synthetic polymer) MSEAADVERVYAAIEEAAGLLGVACARDKIWPLLSTFQDTLVEGGSVVVFSMASGRHSTELDFSISVPPSHGDPYAIVVEKGLFPATGHPVDDLLADIQKHLPVSMFAIDGEVTGGFKKTYAFFPTDNMPGVAELAAIPSMPPAVAENAELFARYGLDKVQMTSMDYKKRQVNLYFSELSAQTLEAESVLALVRELGLHVPNELGLKFCKRSFSVYPTLNWDTSKIDRLCFSVISTDPTLVPSSDEGDIEKFHNYATKAPYAYVGEKRTLVYGLTLSPKEEYYKLGAVYHITDVQRKLLKAFDSLED",Yes,No,No,No,No,Yes,produced a cyclolavandulylated aromatic compound,Yes,No,No
